This passage reports response (normalized MFI) results from PMC8569584.

One experiment concerns the target mAb KIM127. Description: mAb binding to transfected HEK293FT cells (MFI normalized to integrin expression). Conditions: read off a plot.
A further experiment concerns the target mAb m24. The description is as above. The following applies: read off a plot.
The next experiment deals with PAC-1. Description: PAC-1 binding to transfected HEK293FT cells (normalized MFI). Conditions: 1 mM Ca/Mg; parent: est. 4; read off a plot.
The target of experiment [1] is human ICAM-1 with a C-terminal Fc tag of human IgG1 (UniProt P05362). The experiment can be described thus: ICAM-1 binding to transfected HEK293FT cells (MFI normalized to integrin expression). The following applies: 1 mM CaCl2 plus 1 mM MgCl2 (Ca/Mg), read off a plot.
The mark [2] stands for this setting: 1 mM CaCl2 plus 1 mM MnCl2 (Ca/Mn), parent: est. 200.
The mark [3] stands for this setting: 1 mM CaCl2 plus 1 mM MnCl2 (Ca/Mn), parent: est. 230.

With “integrin αLβ2 with the αL-GFFKR to GAAKR mutation and wild-type β2 (from UniProt P20701;P05107) β2:L692P”, the response (normalized MFI) in the experiment with mAb KIM127 (1 mM Ca/Mg, parent: est. 80) was determined as 120; with mAb KIM127 (setting [2]), 210; with mAb m24 (1 mM Ca/Mg, parent: est. 98), 160; in the experiment with mAb m24 (setting [3]), 210.

For the substance “integrin αLβ2 with the αL-GFFKR to GAAKR mutation and wild-type β2 (from UniProt P20701;P05107) β2:I690P”, the response (normalized MFI) with mAb KIM127 (1 mM Ca/Mg, parent: est. 80) was found to be 60; with mAb KIM127 (setting [2]) it was 170; with mAb m24 (1 mM Ca/Mg, parent: est. 98), 67; with mAb m24 (setting [3]) it was 200.

“αIIb WT + β3 WT αIIb:L959C; αIIb:K994C; β3:P688C”: the response (normalized MFI) in the experiment with PAC-1 came out at 3.

For the substance “integrin αLβ2 with the αL-GFFKR to GAAKR mutation and wild-type β2 (from UniProt P20701;P05107) β2:I698P”, the response (normalized MFI) in experiment [1] (parent: est. 60) stood at 84.

αL/β2 WT αL:FFAA (GFFKR to GAAKR): the response (normalized MFI) in experiment [1] (parent: est. 5) worked out at 60; with mAb KIM127 (1 mM Ca/Mg, parent: est. 18), 80; with mAb KIM127 (1 mM CaCl2 plus 1 mM MnCl2 (Ca/Mn), parent: est. 44), 200; in the experiment with mAb m24 (1 mM CaCl2 plus 1 mM MnCl2 (Ca/Mn), parent: est. 58), 230.

For “αIIb WT + β3 WT αIIb:L959C; αIIb:G991C; β3:P688C”, the response (normalized MFI) in the experiment with PAC-1 turned out to be 4.

On to “integrin αLβ2 with the αL-GFFKR to GAAKR mutation and wild-type β2 (from UniProt P20701;P05107) β2:V691P”, for which the response (normalized MFI) with mAb KIM127 (1 mM Ca/Mg, parent: est. 80) worked out at 31; with mAb KIM127 (setting [2]), 120; with mAb m24 (1 mM Ca/Mg, parent: est. 98), 30; with mAb m24 (setting [3]) it was 180.

Turning to αIIb WT + β3 WT β3:P688C, in the experiment with PAC-1, the response (normalized MFI) came to 6.

For the substance αIIb WT + β3 WT αIIb:L959C; αIIb:K994C, the response (normalized MFI) in the experiment with PAC-1 stood at 25.

For αIIb WT + β3 WT αIIb:L959C; αIIb:F993C, the response (normalized MFI) in the experiment with PAC-1 was 37.

With αIIb WT + β3 WT αIIb:L959C; αIIb:G991C, in the experiment with PAC-1, the response (normalized MFI) is 150.

Turning to “αIIb WT + β3 WT αIIb:L959C; αIIb:F992C; β3:P688C”, the response (normalized MFI) with PAC-1 is 3.

Turning to “αIIb WT + β3 WT αIIb:L959C; αIIb:F993C; β3:P688C”, the response (normalized MFI) with PAC-1 came out at 3.

On to “integrin αLβ2 with the αL-GFFKR to GAAKR mutation and wild-type β2 (from UniProt P20701;P05107) β2:V699P”, for which the response (normalized MFI) is 91 with mAb KIM127 (1 mM Ca/Mg, parent: est. 80); 190 in the experiment with mAb KIM127 (setting [2]); 220 with mAb m24 (setting [3]).

“integrin αLβ2 with the αL-GFFKR to GAAKR mutation and wild-type β2 (from UniProt P20701;P05107) β2:I693P”: the response (normalized MFI) worked out at 30 in the experiment with mAb KIM127 (1 mM Ca/Mg, parent: est. 80); 110 with mAb KIM127 (setting [2]); 33 with mAb m24 (1 mM Ca/Mg, parent: est. 98); 140 with mAb m24 (setting [3]).

Consider αIIb WT + β3 WT αIIb:L959C; αIIb:R995C, for which the response (normalized MFI) with PAC-1 came to 110.

Consider “αIIb WT + β3 WT αIIb:L959C; αIIb:R995C; β3:P688C”, for which the response (normalized MFI) in the experiment with PAC-1 stood at 11.

In the case of αIIb WT + β3 WT αIIb:L959C; αIIb:F992C, the response (normalized MFI) with PAC-1 came to 34.

For the substance “integrin αLβ2 with the αL-GFFKR to GAAKR mutation and wild-type β2 (from UniProt P20701;P05107) β2:L696P”, the response (normalized MFI) came out at 52 with mAb KIM127 (1 mM Ca/Mg, parent: est. 80); 180 with mAb KIM127 (setting [2]); 75 in the experiment with mAb m24 (1 mM Ca/Mg, parent: est. 98); 260 with mAb m24 (setting [3]).
